In patent US20190247546A1, “METHOD FOR FORMING A FUNCTIONAL NETWORK OF HUMAN NEURONAL AND GLIAL CELLS” (LEIBNIZ-INSTITUT FÜR POLYMERFORSCHUNG DRESDEN E.V., priority 2016, published 2019):
“Also recorded” adds a separate entry of the source.

Legend:
[1] = test system: cells embedded in PEG-heparin hydrogel, transfected with calcium sensor; assay: Response to neurotransmitter glutamate, calcium sensor fluorescence in hydrogel-embedded cells; format: cell-based, human; conditions: after addition of glutamate
Excerpt: FIG. 5 depicts the results of the measurement of the total fluorescence intensities in the case of addition of the neurotransmitter glutamate. […] The cells in image A2 are embedded in a PEG-heparin hydrogel system before the addition of the neurotransmitter glutamate. Images A3 and A4 show a high magnification of a Gcampf6-transfected cell which is embedded in the PEG-heparin hydrogel system.

[2] = test system: primary human cortical cells (PHCCs); assay: Aβ42 neurotoxicity model, PHCCs in 3D star-PEG-heparin hydrogel; format: cell-based
Description: FIG. 11 contains a graphic depiction of the preparation of the PEG-heparin hydrogel for the investigation of the effect of amyloid β 42 peptides (Aβ42) in primary human cortical cells. Cells of the second passage were placed into a Petri dish in a density of 5×10^3 per cm^2 in step 1. For the purposes of the Aβ42 neurotoxicity model, cells of the second passage were likewise placed in a Petri dish in a density of 5×10^3/cm^2 and incubated for 48 hours with 2 μM Aβ42 (step 1′).
After 48 hours, the cells were harvested and resuspended in phosphate-buffered saline solution (PBS) at a concentration of 8×10^6 cells per ml in a step 2. Then, the same volume of heparin solution (45 μg/μl in PBS) was added and the two were mixed to give a final concentration of 4×10^6 cells/ml in a step 3. In the case of the coating of the extracellular environment of the cells embedded in the PEG-heparin hydrogel system with […], a mixture of Aβ42 peptide in a concentration of 40 μM was added in step 3′.
To cast a gel, the cell solution, PBS and heparin in step 3 were mixed with the same volume of star-PEG. […] The reactions for gel formation last two minutes. After the casting, the gels were placed into 24-well culture plates, with each well containing a culture medium. To culture and to incubate the gels, a ratio of 5% CO2/95% air at 37° C. was used. Gels can be cultured until the desired time point.
Amyloid β 42 peptide, a misfolded protein relevant to Alzheimer's disease, was also used in order to model its toxicity and its effects on neuronal networks. The method according to the invention using a three-dimensional hydrogel system for culturing can, in this way, also be used as a model for neurodegenerative diseases. […] To investigate whether amyloid β 42 (Aβ42) influences the neuronal network, cultures were generated by treating the cells with Aβ42 before introduction into the hydrogel system (intracellular Aβ42) or incubating the hydrogels with Aβ42 before introduction of the cells (extracellular Aβ42). […] Furthermore, the three-dimensional hydrogel system can be used as a practical screening platform for testing compounds which might restore the neurogenic capacity of human stem cells and the formation of neuronal networks even in the presence of Aβ42.
To use gels which were pretreated with amyloid β 42 (Aβ42), the cells were incubated with 2 μM Aβ42 for 48 hours prior to the cell collection from the culture vessel and prior to the embedding of the cells in the hydrogel. To generate a gel environment which contains Aβ42, the cells were first dissolved in 4 μl of 100 μM Aβ42 peptide in PBS. 6 μl of the heparin solution (0.448 mg of HEP-HM6 dissolved in 6 μl of PBS) and 10 μl of the starPEG-MMP solution (0.347 mg of starPEG-MMP dissolved in 10 μl of PBS) were added and, as described above, mixed. In this gel mixture, the concentration of Aβ42 is 20 μM and the concentration of the cells is 2×10^6 cells per ml.
To use gels which were pretreated with amyloid β 42 (Aβ42), the cells were incubated with 2 μM Aβ42 for 48 hours prior to the cell collection from the culture vessel and prior to the embedding of the cells in the hydrogel.
All hydrogels were fixed with ice-cold paraformaldehyde and incubated at room temperature for 1.5 h, followed by a wash in PBS overnight at 4° C. […]
For the hydrogels, fluorescence recordings were carried out using a Leica SP5 inverted confocal and multiphoton microscope. […]

[3] = test system: primary human cortical cells (PHCCs); assay: Effect of IL-4 on Aβ42 toxicity, PHCCs in star-PEG-HEP hydrogels; format: cell-based
Description: To test whether IL-4 acts in humans in a similar manner as could be previously shown in zebrafish investigations for example, the abovementioned star-PEG-HEP hydrogels containing PHCCs were used. To this end, hydrogels containing embedded PHCCs were prepared and they were incubated with Aβ42, as already described. Each test setup contained a positive (with Aβ42) and a negative control group (without Aβ42) as well as an experimental group with Aβ42 and IL-4. In the experimental group, the star-PEG-HEP gels containing embedded PHCCs were cultured with Aβ42 and, at the same time, in the presence of 100 ng/ml IL-4 in the medium. After a three-week culturing phase, the samples were fixed and immunologically stained with respect to GFAP and SOX2 in order to investigate effects of IL-4 on the neural stem and progenitor cells. The nucleus dye DAPI was used in order to show entire cells. […] It can be concluded that the treatment with interleukin 4 stimulates GFAP-positive cells in relation to proliferation to form more neuronal stem and progenitor cells. IL-4 thus increases the neuroplasticity of the embedded PHCCs despite the presence of neurotoxic Aβ42. […] IL-4 is thus an important candidate for future therapies against Aβ42-mediated neurodegeneration.

[4] = Aβ42-treated gels compared with control gels

Question: Which “fluorescence signal of calcium sensor (intracellular calcium influx)” value [1] does the source give for `N[C@@H](CCC(=O)O)C(=O)O` [glutamate] here?
Answer: The value was “increased fluorescence signal; also recorded: increase in the intracellular calcium level”.

Question: What does the source list for “Aβ42: Amyloid β 42 peptide, a misfolded protein relevant to Alzheimer's disease”?
Answer: number of branches per network [2, 4]: significantly lower; number of cells [2, 4]: significantly reduced; number of networks [2, 4]: significantly reduced; effect on axons ([2]; Aβ42 treatment): dystrophy of axons; neuronal network formation ([2]; intracellular and extracellular Aβ42, compared with control gels): significant impairment; cell count (GFAP-positive and SOX2-positive cells) ([3]; Aβ42-treated cultures vs untreated control, three-week culture): strong decline

B1: IL-4: interleukin 4 (protein, UniProt P05112 25-153, looked up)
Interleukin-4: HKCDITLQEIIKTLNSLTEQKTLCTELTVTDIFAASKNTTEKETFCRAATVLRQFYSHHEKDTRCLGATAQQFHRHKQLIRFLKRLDRNLWGLAGLNSCPVKEANQSTLENFLERLKTIMREKYSKCSS
Question: For B1, which “proliferation of human neuronal stem cells” value ([3]; Aβ42 plus 100 ng/ml IL-4) is on record?
Answer: Its value is “activates the proliferation”.

Question: What about the cell count ([3]; Aβ42 plus 100 ng/ml IL-4 in the medium, three-week culture) of the same molecule?
Answer: The cell count was “altogether comparable with the control cultures without Aβ42 treatment”.
